The record followed here is patent US20190233486A1 (ACCELERON PHARMA, published 2019).

In assay [1] the target is T1, GDF11 (UniProt O95390 299-407).
T1 construct: also called growth and differentiation factor-11; BMP11
T1 sequence (looked up): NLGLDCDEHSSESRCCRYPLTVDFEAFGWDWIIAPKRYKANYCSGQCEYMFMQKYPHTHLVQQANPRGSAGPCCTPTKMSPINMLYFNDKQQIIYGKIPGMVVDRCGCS
The experiment in a line: Biacore SPR; ligand coupled to the chip, receptor-Fc flowed over (data reproduced from WO2006/012627). (In SPR one partner is held on a chip, and binding of the other changes the refractive index at the surface.)

For assay [2], the target named is T2, activin A (UniProt P08476 311-426).
T2 construct: also called ActA
T2 sequence (looked up): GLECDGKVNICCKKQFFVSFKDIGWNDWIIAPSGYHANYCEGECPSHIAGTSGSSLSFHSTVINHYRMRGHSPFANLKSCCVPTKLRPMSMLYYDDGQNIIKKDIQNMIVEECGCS
The description is as above.

B1: Soluble ActRIIB-Fc WT (64A) (Fc fusion, not shown: a dimerising Fc or GST)
chain: GRGEAETRECIYYNANWELERTNQSGLERCEGEQDKRLHCYASWANSSGTIELVKKGCWLDDFNCYDRQECVATEENPQVYFCCCEGNFCNERFTHLPEA
notes: Data reproduced from WO2006/012627
In the case of B1, the Kd in assay [1] is 0.26 µM; in assay [2], 0.18 µM.

What is called Kd is a measure of binding affinity in units of concentration. The low end stands for higher affinity, the high end for lower affinity.
